Measurements: patent US7090834B1, “Vascular endothelial cell growth factor variants and uses thereof” (Genentech, Inc., priority 1999, dated 2006)

Legend:
HUVEC cells = test: HUVEC migration, modified Boyden chamber assay; type: cell-based, human
Description: One of the central aspects of VEGF action on endothelial cells is its ability to act as a chemoattractant and stimulate the migration of endothelial cells. HUVEC cell migration was analyzed in a modified Boyden chamber assay as follows.
Falcon 8.0 micron filter inserts (Falcon 3097) were coated with type 1 collagen (VITROGEN, COHESION). HUVEC (obtained from Cell Systems, <passage 8) were grown in Cell Systems complete media (4ZO-500) with 10% FCS. Cells were trypsinized and transferred to EBM (Endothelial basal media, Clonetics) with 0.1% BSA for the assay. Cells were plated at 5×10^4 per upper chamber. […] The assay was routinely an 18 hour assay at 37° C. For the LY294002 inhibitor experiments, cells were allowed to adhere for 30 minutes prior to addition of the inhibitor. 20 minutes after inhibitor addition, VEGF was added to the bottom well and the assay was allowed to proceed for only 4 hours to avoid the occurrence of apoptosis associated with the treatment of these primary cells with LY294002 (purchased from Biomol).
Cells were removed from the upper side of the membrane by scraping with a polyurethane swab and then the remaining cells on the bottom side of the membrane were fixed with methanol. Cells were stained with Yo-Pro Iodide nuclear stain (Molecular Probes) and counted under low power fluorescence using an Image-Pro cell recognition program.

corneal angiogenesis = test: Corneal pocket angiogenesis assay; type: in vivo, Sprague-Dawley rats; conditions: rat, pellet with 200 ng growth factor, day 6, FIGS. 15A and 15B
Description: Assays were performed as described by Polyerini et al., Methods Enzymol., 198:440–450 (1991) with the following modifications. Sprague-Dawley rats were anesthetized using a gas (isoflurane)/injectable ketamine (80 mg/kg)/xylazine (15 mg/kg) combination. The eyes were gently proptosed and secured in place using nontraumatic forceps. With a #15 blade, a 1.5 mm incision was made slightly below the center of the cornea. Using a micro spatula (ST80017, ASSI), the incision was carefully blunt-dissected through the stroma toward the outer canthus of the eye. […] After surgery, the eyes were coated with gentamicin ointment. At day 6, the animals were injected with high molecular weight FITC-dextran and euthanized to allow for visualization of the vasculature. Corneal whole mounts were made of the enucleated eyes and measurements of the neovascular area completed using computer-assisted image analysis (Image-Pro Plus).

[1] = biological target: T1, KDR receptor (soluble radio-immuno receptor-binding assay) (UniProt P35968 20-764, limits assumed); test: soluble radio-immuno receptor-binding assay (RIA)
T1 construct: the receptor construct is not described
Description: For example, quantitative binding measurements were carried out using a soluble radio-immuno receptor-binding assay (RIA), as described in Example 6 above.

PLC-gamma in HUVEC cells = test: PLC-gamma tyrosine phosphorylation after immunoprecipitation; type: cell-based, human; conditions: 20 ng/ml, 5 minutes, FIG. 13A
Description: In order to determine which VEGF receptor(s) are involved in PLC-gamma activation in primary endothelial cells, HUVEC cells were treated with native VEGF or VEGF receptor-selective variants and PLC-gamma phosphorylation was assessed after immunoprecipitation.
Passage 4–7 HUVEC cells (Cell Systems, Kirkland, Wash.) were grown in Cell System's complete medium (AZ0-500) with 10% fetal calf serum and growth factors on gelatin-coated dishes and made quiescent by 14 hour starvation in 0.2% serum. […] The cells were then lysed in 0.5–1 ml RIPA buffer containing 0.1 mM sodium orthovanadate, 5 mM para-nitrophenylphosphate, 10 mM sodium fluoride, 0.5 micromolar okadaic acid and a protease inhibitor cocktail (Roche MB 1836145). PLC-gamma was then immunoprecipitated from whole cell lysates using monoclonal antibodies (Upstate Biotechnology) and analyzed for tyrosine phosphorylation (FIG. 13A) or lysates were immunoprecipitated with monoclonal antibodies against p85 PI 3′-kinase (purchased from Transduction Labs (P13020) and Neomarkers (MS424-P)) and tested for phosphotyrosine using phosphotyrosine antibodies PY20 or E120H (Transduction Labs) (FIG. 13B). Immunoprecipitation was conducted as follows. Protein A/G beads (Pierce) were blocked for nonspecific protein binding in 50 mM HEPES pH 7.2, 0.1% TX-100, 150 mM NaCl and 1 mg/ml ovalbumin for 30 minutes. Antibodies were precoupled in the same buffer for 1 hour at 4° C. with head over end rotation and beads were washed 3 times in lysis buffer. Beads were added to the lysates and rotated overnight. Beads were washed sequentially in 50 mM Tris pH 7.6, 150 mM NaCl, 1% TX-100, 1 mM CaCl2; 50 mM Tris pH 7.6, 500 mM NaCl, 0.1% TX-100, 1 mM CaCl2 and 50 mM Tris pH 7.6, 150 mM NaCl, 0.05% TX-100, 1 mM CaCl2. Beads were then resuspended in 2× sample buffer and boiled. Supernatants were applied directly to 4–12% Tris-Glycine gradient gels (Novex).

[2] = test system: ERK1 and ERK2 in HUVEC cells; test: Activation of MAP kinases, ERK1/ERK2 phosphorylation Western blot; type: cell-based, human; conditions: 50 ng/ml or 10 ng/ml, 5 minutes, FIG. 12A
Description: Passage 4–7 HUVEC cells (Cell Systems, Kirkland, Wash.) were grown in Cell System's complete medium (AZ0-500) with 10% fetal calf serum and growth factors on gelatin-coated dishes and made quiescent by 14 hour starvation in 0.2% serum. […] The HUVEC cells were then lysed in 0.5–1 ml RIPA buffer containing 0.1 mM sodium orthovanadate, 5 mM para-nitrophenylphosphate, 10 mM sodium fluoride, 0.5 micromolar okadaic acid and a protease inhibitor cocktail (Roche MB 1836145). Western blot analysis was then conducted, probing for phosphorylated ERK1 or ERK2 using anti-phospho ERK antiserum (Promega).

[3] = biological target: T1, KDR receptor (soluble radio-immuno …); test: RIA (essentially as Muller et al. 1997)
[4] = biological target: T2, FLT-1 receptor (soluble radio-immuno receptor-binding assay) (UniProt P17948 27-758, limits assumed); test: RIA (essentially as Muller et al. 1997)
T2 construct: the receptor construct is not described

Flt-IgG = biological target: T3, Flt-IgG (UniProt P17948 27-758, limits assumed); test: competition ELISA vs biotinylated native VEGF for Flt-IgG
T3 construct: also called chimeric Flt-human Fc molecule; not shown: human IgG Fc
Description: (§1) Receptor binding assays were performed in 96-well immunoplates (Maxisorp, Nunc-Immunoplate, Nalge Nunc International, Rochester, N.Y.). Each well was coated with 100 μl of a solution containing 2 μg/ml of rabbit F(ab')2 to human IgG Fc (Jackson ImmunoResearch, West Grove, Pa.) in 50 mM carbonate buffer at pH 9.6 and incubated at 4° C. overnight. The supernatant was then discarded, the wells were washed three times in washing buffer (0.05% Tween 20 in PBS), and the plate was blocked (150 μl per well) with block buffer (0.5% BSA, 0.01% thimerosal in PBS) at room temperature for one hour. The supernatant was discarded, and the wells were washed.
The wells were filled with 100 μl of a solution containing Flt-IgG (a chimeric Flt-human Fc molecule) at 50 ng/ml in assay buffer (0.5% BSA, 0.05% Tween 20 in PBS). The wells were incubated at room temperature for 1 hour and then washed three times in wash buffer (0.05% Tween 20 in PBS).
(§2) Aliquots of the mixture (100 μl) were added to the precoated microtiter wells and the plate was incubated for 2 hours at room temperature. […] The wells were then incubated with 3, 3', 5,5'-tetramethyl benzidine (0.2 g/liter, Kirkegaard & Perry Laboratories, Gaithersburg, Md.) for about 10 minutes at room temperature. Absorbance was read at 450 nm on a Vmax plate reader (Molecular Devices, Menlo Park, Calif.).

[5] = biological target: gD-KDR receptor on CHO cells (UniProt P35968 20-1356); test: cell-based or functional assay
Flt-1 receptor = test: RIA assay, binding to FLT-1 receptor; conditions: relative to native VEGF 165 = 1
Description: Various assays were conducted to examine the properties and biological activities of the I43A/I46A/Q79A/I83A Flt-sel variant. For example, quantitative binding measurements were carried out using a soluble radio-immuno receptor-binding assay (RIA), as described in Example 6 above.

KDR receptor = KDR receptor (Homo sapiens, UniProt P35968); test: KDR receptor binding ELISA (inhibition of biotinylated native VEGF (8–109) binding); conditions: second figure of the cell, variant midpoint concentration divided by that of native VEGF
Description: as §1, with “containing 8” for “containing 2”, “of a monoclonal antibody” for “of rabbit F(ab')2”, “to KDR known as MAKD5 (Genentech, South San Francisco, Calif.)” for “to human IgG Fc (Jackson ImmunoResearch, West Grove, Pa.)”, “was” for “was then”
as §2, with “of this” for “of the”, “for 1 hour” for “for 2 hours”, “3, 3′, 5,5′-tetramethyl” for “3, 3', 5,5'-tetramethyl”, “(0.2 gram/liter;” for “(0.2 g/liter,”
(§3) Titration curves were fit with a four-parameter nonlinear regression curve-fitting program (KaleidaGraph, Synergy Software, Reading, Pa.).

KDR (1-3) = biological target: T4, KDR (1-3) (UniProt P35968 20-327, limits assumed); test: competition ELISA vs biotinylated native VEGF (8-109) for KDR (1-3)
T4 construct: domain: domains 1 to 3; Genentech reagent; also called KDR (1-3) monomer; domains 1 to 3 of KDR
Description: as §1, with “containing 8” for “containing 2”, “of a monoclonal antibody” for “of rabbit F(ab')2”, “to KDR known as MAKD5 (Genentech, South San Francisco, Calif.)” for “to human IgG Fc (Jackson ImmunoResearch, West Grove, Pa.)”, “was” for “was then”
as §2, with “of this” for “of the”, “for 1 hour” for “for 2 hours”, “(0.2 gram/liter;” for “(0.2 g/liter,”
as §3

[6] = biological target: KDR receptor on HUVEC cells (human, UniProt P35968 20-1356); test: cell-based or functional assay
Sequence of KDR receptor on HUVEC cells (P35968 20-1356): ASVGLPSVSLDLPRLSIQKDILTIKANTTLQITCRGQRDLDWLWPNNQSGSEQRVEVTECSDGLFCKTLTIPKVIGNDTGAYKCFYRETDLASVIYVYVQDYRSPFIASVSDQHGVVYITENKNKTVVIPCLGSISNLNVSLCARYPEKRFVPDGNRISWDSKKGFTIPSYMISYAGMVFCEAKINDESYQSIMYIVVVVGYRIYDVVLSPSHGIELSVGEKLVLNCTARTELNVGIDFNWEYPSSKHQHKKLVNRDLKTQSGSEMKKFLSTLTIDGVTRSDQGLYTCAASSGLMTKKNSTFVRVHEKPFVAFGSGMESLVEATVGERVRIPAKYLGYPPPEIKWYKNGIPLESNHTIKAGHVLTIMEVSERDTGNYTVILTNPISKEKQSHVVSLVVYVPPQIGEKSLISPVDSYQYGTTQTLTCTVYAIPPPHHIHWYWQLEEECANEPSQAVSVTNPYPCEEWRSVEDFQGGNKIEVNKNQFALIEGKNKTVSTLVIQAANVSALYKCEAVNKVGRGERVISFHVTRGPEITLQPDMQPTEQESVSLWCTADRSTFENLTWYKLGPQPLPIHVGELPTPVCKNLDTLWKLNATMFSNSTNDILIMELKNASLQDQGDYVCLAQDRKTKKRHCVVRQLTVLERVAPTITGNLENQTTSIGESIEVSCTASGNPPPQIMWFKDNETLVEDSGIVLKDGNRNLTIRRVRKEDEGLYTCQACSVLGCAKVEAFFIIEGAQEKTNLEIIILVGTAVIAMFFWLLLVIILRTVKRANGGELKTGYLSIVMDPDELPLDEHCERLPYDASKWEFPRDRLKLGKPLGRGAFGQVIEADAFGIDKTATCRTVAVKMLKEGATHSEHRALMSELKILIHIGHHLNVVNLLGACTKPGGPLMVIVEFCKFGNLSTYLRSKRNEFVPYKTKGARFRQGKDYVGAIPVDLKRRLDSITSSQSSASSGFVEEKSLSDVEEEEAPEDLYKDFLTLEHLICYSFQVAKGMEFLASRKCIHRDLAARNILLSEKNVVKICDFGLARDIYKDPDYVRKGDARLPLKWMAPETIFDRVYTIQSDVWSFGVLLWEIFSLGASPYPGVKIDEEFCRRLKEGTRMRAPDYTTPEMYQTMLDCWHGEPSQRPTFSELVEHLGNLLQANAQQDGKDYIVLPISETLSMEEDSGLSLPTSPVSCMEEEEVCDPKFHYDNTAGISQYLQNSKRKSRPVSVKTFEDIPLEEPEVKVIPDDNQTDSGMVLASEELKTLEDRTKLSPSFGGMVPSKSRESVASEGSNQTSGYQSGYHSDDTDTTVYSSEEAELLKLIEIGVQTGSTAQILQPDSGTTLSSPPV

T1 sequence (P35968 20-764 limits assumed): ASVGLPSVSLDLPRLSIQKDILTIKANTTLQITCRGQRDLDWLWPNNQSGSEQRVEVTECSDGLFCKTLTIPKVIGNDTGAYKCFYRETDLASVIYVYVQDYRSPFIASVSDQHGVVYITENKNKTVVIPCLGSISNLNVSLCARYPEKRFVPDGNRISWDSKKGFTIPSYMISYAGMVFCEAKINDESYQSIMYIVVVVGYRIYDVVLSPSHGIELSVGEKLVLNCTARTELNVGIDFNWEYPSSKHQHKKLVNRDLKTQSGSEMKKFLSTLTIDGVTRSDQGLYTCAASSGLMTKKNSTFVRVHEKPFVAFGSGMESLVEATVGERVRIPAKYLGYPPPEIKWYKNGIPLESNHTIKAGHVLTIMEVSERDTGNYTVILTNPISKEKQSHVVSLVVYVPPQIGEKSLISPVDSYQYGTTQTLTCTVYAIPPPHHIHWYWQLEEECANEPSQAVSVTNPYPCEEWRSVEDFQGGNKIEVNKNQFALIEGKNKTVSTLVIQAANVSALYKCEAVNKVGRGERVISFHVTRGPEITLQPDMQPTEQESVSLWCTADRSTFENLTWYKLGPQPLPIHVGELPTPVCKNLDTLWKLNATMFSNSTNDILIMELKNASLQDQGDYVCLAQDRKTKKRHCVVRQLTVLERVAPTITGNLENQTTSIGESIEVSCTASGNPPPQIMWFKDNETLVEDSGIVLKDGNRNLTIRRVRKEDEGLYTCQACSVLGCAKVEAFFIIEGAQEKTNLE
T3 sequence (P17948 27-758 limits assumed): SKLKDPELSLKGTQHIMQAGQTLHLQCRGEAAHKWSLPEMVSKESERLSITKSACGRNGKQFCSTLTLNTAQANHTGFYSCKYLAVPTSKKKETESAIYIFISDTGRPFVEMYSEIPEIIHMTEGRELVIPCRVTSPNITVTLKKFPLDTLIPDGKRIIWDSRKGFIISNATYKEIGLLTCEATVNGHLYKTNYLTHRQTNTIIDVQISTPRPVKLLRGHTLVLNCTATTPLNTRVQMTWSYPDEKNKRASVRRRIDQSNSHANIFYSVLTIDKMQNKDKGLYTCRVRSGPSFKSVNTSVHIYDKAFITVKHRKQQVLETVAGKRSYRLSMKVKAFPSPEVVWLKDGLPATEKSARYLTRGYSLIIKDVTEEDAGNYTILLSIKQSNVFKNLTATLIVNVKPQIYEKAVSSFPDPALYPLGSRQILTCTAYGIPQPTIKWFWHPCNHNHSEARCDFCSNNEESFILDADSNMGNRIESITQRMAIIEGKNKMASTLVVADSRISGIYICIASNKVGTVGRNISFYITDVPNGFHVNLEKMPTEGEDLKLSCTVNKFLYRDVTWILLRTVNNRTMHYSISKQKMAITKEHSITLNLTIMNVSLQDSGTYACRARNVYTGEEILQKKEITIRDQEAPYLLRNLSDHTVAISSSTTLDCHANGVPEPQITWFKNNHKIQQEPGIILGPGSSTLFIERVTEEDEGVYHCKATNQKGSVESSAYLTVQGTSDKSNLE
T2 sequence (P17948 27-758 limits assumed): as above
T4 sequence (P35968 20-327 limits assumed): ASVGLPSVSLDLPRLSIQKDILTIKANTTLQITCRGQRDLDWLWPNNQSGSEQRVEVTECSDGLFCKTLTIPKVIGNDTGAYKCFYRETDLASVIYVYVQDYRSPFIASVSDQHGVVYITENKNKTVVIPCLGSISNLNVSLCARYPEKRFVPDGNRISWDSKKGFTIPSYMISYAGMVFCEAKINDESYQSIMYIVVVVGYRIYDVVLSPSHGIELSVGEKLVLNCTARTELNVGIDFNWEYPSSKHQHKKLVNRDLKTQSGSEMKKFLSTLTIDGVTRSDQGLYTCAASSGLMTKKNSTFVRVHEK
Sequence of KDR receptor (P35968 20-327 limits assumed): as above
Sequence of Flt-1 receptor (P17948 27-331 limits assumed): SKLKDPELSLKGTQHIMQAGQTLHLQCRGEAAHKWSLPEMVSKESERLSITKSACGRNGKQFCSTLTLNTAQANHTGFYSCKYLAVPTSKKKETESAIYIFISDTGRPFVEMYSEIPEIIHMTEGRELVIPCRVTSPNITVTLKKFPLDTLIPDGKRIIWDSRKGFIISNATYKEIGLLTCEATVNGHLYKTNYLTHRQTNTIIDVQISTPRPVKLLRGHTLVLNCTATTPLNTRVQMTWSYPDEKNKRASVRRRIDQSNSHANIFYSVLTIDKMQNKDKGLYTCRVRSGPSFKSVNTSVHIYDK

Which “inhibition of HUVEC cell migration” value (HUVEC cells; highest concentration of inhibitor, migration in response to native VEGF, 4 hours, FIG. 14B) does the source give for `O=c1cc(N2CCOCC2)oc2c(-c3ccccc3)cccc12` [LY 294002, reference compound] here?
The value was 56%.

B1: PlGF: VEGF-related molecule that binds Flt-1 but not KDR (R & D Systems) (protein)
chain: AVPPQQWALSAGNGSSEVEVVPFQEVWGRSYCRALERLVDVVSEYPSEVEHMFSPSCVSLLRCTGCCGDENLHCVPVETANVTMQLLKIRSGDRPSYVELTFSQHVRCECRPLREKMKPERCGDAVPRR
Which “induction of corneal angiogenesis” value (corneal angiogenesis) does the source give for B1 here?
Its value is “only a marginal response”.

B2: Flt-sel (I43A/I46A/Q79A/I83A, 1-109 short form) (ligand, human, UniProt P15692-4 27-135, looked up)
chain: APMAEGGGQNHHEVVKFMDVYQRSYCHPIETLVDIFQEYPDEAEYAFKPSCVPLMRCGGCCNDEGLECVPTEESNITMAIMRAKPHQGQHIGEMSFLQHNKCECRPKKD
notes: also called Flt-1-sel; Flt-1 selective variant
Which “fold reduced KDR-binding affinity (against native VEGF (8-109))” value [1] does the source give for B2 here?
Its value is at least 470 fold.

B3: Flt-1 selective VEGF variant: Flt-1 selective variant comprising a full length 165 sequence with I43A/I46A/Q79A/I83A (protein)
chain: APMAEGGGQNHHEVVKFMDVYQRSYCHPIETLVDIFQEYPDEAEYAFKPSCVPLMRCGGCCNDEGLECVPTEESNITMAIMRAKPHQGQHIGEMSFLQHNKCECRPKKD
For B3, which “induction of corneal angiogenesis” value (corneal angiogenesis) is on record?
The value was “unable to stimulate angiogenesis over control levels”.

What about the “promotion of HUVEC cell migration” value (HUVEC cells; 18 hour assay, FIG. 14A) of the same molecule?
Its value is “unable to increase cell migration over background levels”.

And the PLC-gamma phosphorylation (PLC-gamma in HUVEC cells)?
The PLC-gamma phosphorylation was “did not increase PLC-gamma phosphorylation over background levels”.

And the “phosphorylation of ERK1 and ERK2” value [2]?
Its value is “barely detectable phosphorylation of ERK2”.

B4: LK-VRB-1s* (ligand, human, UniProt P15692-4 27-135, looked up)
chain: APMAEGGGQNHHEVVKFEDVLRRSSCHPIETLVDIFQEYPDEIEYIFKPSCVPLMRCGGCCNDEGLECVPTEESNITMQIMRIKPHQGQHIGEMSFLQHNKCECRPKKD
With B4 as the molecule, how does the “relative binding affinity (ratio to native VEGF 165)” value [3] read?
The value was 20 ratio.

What about the “relative binding affinity (ratio to native VEGF 165)” value [4] of the same molecule?
Its value is 14000 ratio.

And the “relative binding affinity (ratio to native VEGF (8-109))” value (Flt-IgG)?
Its value is 6000 ratio.

And the “Phosphorylation-Inducing Activity (KIRA assay)” value [5]?
Its value is 0.5 ratio to native VEGF (8-109).

What about the “Relative Binding Affinity, FLT-1 Receptor (RIA)” value (Flt-1 receptor) of the same molecule?
The value was 14,000.

What about the “Relative Binding Affinity, KDR Receptor: ratio to native VEGF (8–109)” value (KDR receptor) of the same molecule?
Its value is 1 nM/1.

What about the “relative binding affinity (ratio to native VEGF (8-109))” value (KDR (1-3)) of the same molecule?
Its value is 1 ratio.

What about the “Endothelial Cell Proliferation Activity (HUVEC, 3H-thymidine)” value [6] of the same molecule?
Its value is 0.2 ratio to native VEGF (8-109).
